Reference: the supplement of paper PMC6757056
± gives the standard deviation of the averaged measurements.

B1: library; a variant is named by its letters at N, in order (parent)
chain: GCUGUCACCGAGAAACUGUGAAGUAUAUCUUAAACCUGGGCACUUAAAAGAUAUAUGGAGUUAGUAGUGCAACCUGCUCGGUCUGAUGAGUCCNNNNNNGGACGAAACAGC

Key:
[1] = variants of: B1; test: FACS-Seq fitted mean relative fluorescence mCherry/BFP without ligand (log10 relative fluorescence); HEK293T; ligand: cyclic di-GMP (c-di-GMP-II aptamer); higher = higher reporter protein expression; details: ligand present: no
Experimental: (§1)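 Hammerhead (sTRSV) ribozyme switch libraries with a ligand aptamer grafted on stem I and a randomized N4-6 loop II, cloned into the 3' UTR of mCherry and transiently transfected into HEK293T cells; RNA-Seq 72 h post transfection with ligand added 1 h before transfection; RNA read count / plasmid DNA read count normalized to the non-cleaving sTRSVctl (x100), log10; sequences with >100 DNA reads. FACS-Seq: lentiviral library sorted into 6 bins after 48 h ligand, log-normal fit mean of mCherry/BFP scaled to controls. Printed sequences are partial switch sequences.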

[2] = variants of: B1; test: normalized RNA/DNA level without ligand (relative to sTRSVctl = 100) (log10 (% of sTRSVctl)); HEK293T; ligand: cyclic di-GMP (c-di-GMP-II aptamer); higher = less ribozyme self-cleavage, higher mRNA level; details: reporter: mCherry (pCS4076), ligand present: no
Experimental: as §1

[3] = variants of: B1; test: FACS-Seq fitted mean relative fluorescence mCherry/BFP with ligand (log10 relative fluorescence); HEK293T; ligand: cyclic di-GMP (c-di-GMP-II aptamer); ligand concentration (+) FACS-Seq: 1 mM; higher = higher reporter protein expression; details: ligand present: yes
Experimental: as §1

[4] = variants of: B1; test: normalized RNA/DNA level with ligand (relative to sTRSVctl = 100) (log10 (% of sTRSVctl)); HEK293T; ligand: cyclic di-GMP (c-di-GMP-II aptamer); ligand concentration (+) RNA-Seq: 1 mM; higher = less ribozyme self-cleavage, higher mRNA level; details: reporter: mCherry (pCS4076), ligand present: yes
Experimental: as §1

| Variant | FACS-Seq fitted mean (log10) [1] | normalized RNA/DNA level without ligand (log10) [2] | FACS-Seq fitted mean (log10) [3] | normalized RNA/DNA level with ligand (log10) [4] |
| --- | --- | --- | --- | --- |
| GCUGUCACCGAGAAACUGUGAAGUAUAUCUUAAACCUGGGCACUUAAAAGAUAUAUGGAGUUAGUAGUGCAACCUGCUCGGUCUGAUGAGUCCGCGCGAGGACGAAACAGC [GCGCGA] | -0.455 ± 0.074 | 1.51 ± 0.12 | -0.199 ± 0.081 | 1.65 ± 0.037 |
| GCUGUCACCGAGAAACUGUGAAGUAUAUCUUAAACCUGGGCACUUAAAAGAUAUAUGGAGUUAGUAGUGCAACCUGCUCGGUCUGAUGAGUCCUACAACGGACGAAACAGC [UACAAC] | 0.031 ± 0.034 | 1.68 ± 0.03 | 0.268 ± 0.013 | 1.8 ± 0.11 |
| GCUGUCACCGAGAAACUGUGAAGUAUAUCUUAAACCUGGGCACUUAAAAGAUAUAUGGAGUUAGUAGUGCAACCUGCUCGGUCUGAUGAGUCCACCAAAGGACGAAACAGC [ACCAAA] | -0.438 ± 0.056 | 1.49 ± 0.12 | -0.0508 ± 0.12 | 1.71 ± 0.1 |
| GCUGUCACCGAGAAACUGUGAAGUAUAUCUUAAACCUGGGCACUUAAAAGAUAUAUGGAGUUAGUAGUGCAACCUGCUCGGUCUGAUGAGUCCACCCUGGGACGAAACAGC [ACCCUG] | -0.354 ± 0.046 | 1.67 ± 0.022 | 0.0314 ± 0.09 | 1.83 ± 0.097 |
| GCUGUCACCGAGAAACUGUGAAGUAUAUCUUAAACCUGGGCACUUAAAAGAUAUAUGGAGUUAGUAGUGCAACCUGCUCGGUCUGAUGAGUCCCAAGUAGGACGAAACAGC [CAAGUA] | -0.495 ± 0.0052 | 1.46 ± 0.13 | -0.203 ± 0.02 | 1.63 ± 0.07 |
| GCUGUCACCGAGAAACUGUGAAGUAUAUCUUAAACCUGGGCACUUAAAAGAUAUAUGGAGUUAGUAGUGCAACCUGCUCGGUCUGAUGAGUCCCGAGCGGGACGAAACAGC [CGAGCG] | -0.783 ± 0.013 | 1.81 ± 0.023 | -0.5474 ± 0.004 | 1.9 ± 0.12 |
| GCUGUCACCGAGAAACUGUGAAGUAUAUCUUAAACCUGGGCACUUAAAAGAUAUAUGGAGUUAGUAGUGCAACCUGCUCGGUCUGAUGAGUCCGAGCGUGGACGAAACAGC [GAGCGU] | -1.38 ± 0.089 | 1.814 ± 0.0041 | -1.2 ± 0.013 | 1.9 ± 0.052 |
| GCUGUCACCGAGAAACUGUGAAGUAUAUCUUAAACCUGGGCACUUAAAAGAUAUAUGGAGUUAGUAGUGCAACCUGCUCGGUCUGAUGAGUCCUGAAUCGGACGAAACAGC [UGAAUC] | -0.558 ± 0.0095 | 1.72 ± 0.011 | -0.4 ± 0.028 | 1.85 ± 0.083 |
| GCUGUCACCGAGAAACUGUGAAGUAUAUCUUAAACCUGGGCACUUAAAAGAUAUAUGGAGUUAGUAGUGCAACCUGCUCGGUCUGAUGAGUCCCGGGAGGGACGAAACAGC [CGGGAG] | -0.586 ± 0.063 | 1.68 ± 0.017 | -0.113 ± 0.0022 | 1.79 ± 0.064 |
| GCUGUCACCGAGAAACUGUGAAGUAUAUCUUAAACCUGGGCACUUAAAAGAUAUAUGGAGUUAGUAGUGCAACCUGCUCGGUCUGAUGAGUCCGAAUGGGGACGAAACAGC [GAAUGG] | -0.119 ± 0.036 | 1.62 ± 0.041 | 0.0864 ± 0.016 | 1.75 ± 0.086 |
| GCUGUCACCGAGAAACUGUGAAGUAUAUCUUAAACCUGGGCACUUAAAAGAUAUAUGGAGUUAGUAGUGCAACCUGCUCGGUCUGAUGAGUCCUCAUGUGGACGAAACAGC [UCAUGU] | -0.749 ± 0.0092 | 1.63 ± 0.073 | -0.517 ± 0.028 | 1.82 ± 0.077 |
| GCUGUCACCGAGAAACUGUGAAGUAUAUCUUAAACCUGGGCACUUAAAAGAUAUAUGGAGUUAGUAGUGCAACCUGCUCGGUCUGAUGAGUCCGCUCAUGGACGAAACAGC [GCUCAU] | -0.503 ± 0.042 | 1.66 ± 0.0087 | -0.178 ± 0.097 | 1.78 ± 0.1 |
| GCUGUCACCGAGAAACUGUGAAGUAUAUCUUAAACCUGGGCACUUAAAAGAUAUAUGGAGUUAGUAGUGCAACCUGCUCGGUCUGAUGAGUCCACUAAGGGACGAAACAGC [ACUAAG] | -0.34 ± 0.089 | 1.5 ± 0.12 | -0.165 ± 0.11 | 1.71 ± 0.026 |
